How the values were obtained:
[1] = molecular target: T1, streptavidin (UniProt P22629 37-163, limits assumed); assay: fluorescent binding curve, labeled SA in 50% urine, 4 h; quadratic fit
T1 construct: It was used without a stated label in the sandwich assays; also called SA

[2] = molecular target: monomeric streptavidin variant mSA2; assay: fluorescent binding curve, labeled mSA2 in 50% urine, 4 h; quadratic fit
[3] = molecular target: T1, streptavidin; assay: fluorescent binding curve, labeled SA in PBS, 4 h exposure; quadratic fit
[4] = molecular target: T1, streptavidin; assay: fluorescent binding curve, labeled SA in 50% blood serum, 4 h; quadratic fit
[5] = molecular target: monomeric streptavidin variant mSA2; assay: fluorescent binding assay, labeled mSA2; signal three standard deviations above blank
Description: (§1) The binding function of rcSso7d.SA oligomer-PNIPAM thin films was measured using fluorescently-labeled monomeric streptavidin (mSA2) and fluorescently-labeled streptavidin (SA). Details for the expression, purification, and fluorescent labeling of mSA2 are provided below. Samples were prepared by serial dilution of SA or mSA2 in PBS (pH 7.4), human urine (diluted to 50% v/v in PBS, pH 7.4), or blood serum (obtained as the supernatant by centrifuging whole blood at 1500×g for 10 minutes, then diluted to 50% v/v in PBS, pH 7.4). 0.5 μL drops of solutions containing serially diluted fluorescent mSA2 and fluorescent SA samples in PBS (pH 7.4) were gently applied to the surface of each bioconjugate thin film. Films were incubated in a sealed chamber saturated with water vapor at room temperature to prevent to prevent drying of the applied fluorescent samples. After 1 hour, films were thoroughly rinsed with water for 10 seconds (a time determined to be sufficient to remove unbound molecules from the film, see FIG. 33, dried under filtered airflow, and immediately analyzed for fluorescent signal. Fluorescence microscopy images were acquired at 4× magnification using a Cy5 filter set and exposure time of 5000 ms on an Olympus IX-81 inverted fluorescence microscope with an AxioCam HRC CCD camera. Fluorescent intensity was calculated using ImageJ software⁶⁷ by determining the average fluorescent signal in a rectangular area of the fluorescent image free of defects and occupying no less than half of the full sample application area.
Oligomerization of rcSso7d.SA also brings about a decrease in biosensor limit of detection (LOD). […] While all thin films display improvements up to threefold in LOD over the monolayer, the trend in LOD with respect to degree of oligomerization is non-monotonic. The primary factor that is expected to affect LOD in the studied biosensors is number of binding sites, as more binding sites enable a greater number of analyte molecules to be captured and shifts analyte-receptor equilibrium in favor of binding events.

[6] = molecular target: monomeric streptavidin variant mSA2; assay: fluorescent binding assay, labeled mSA2 in PBS on the monolayer, 4 h exposure
[7] = molecular target: T1, streptavidin; assay: apparent Kd (Kd,app); fluorescent binding curve, labeled SA in PBS, 4 h exposure; quadratic fit
[8] = molecular target: monomeric streptavidin variant mSA2; assay: fluorescent binding assay: labeled mSA2 in PBS applied to the protein monolayer, rinsed, fluorescence microscopy
Description: as §1, with “Films were incubated in a sealed chamber saturated with water vapor at room temperature to prevent to prevent drying of the applied fluorescent samples.” left out, “area. […]” for “area.”

T1 sequence (P22629 37-163 limits assumed): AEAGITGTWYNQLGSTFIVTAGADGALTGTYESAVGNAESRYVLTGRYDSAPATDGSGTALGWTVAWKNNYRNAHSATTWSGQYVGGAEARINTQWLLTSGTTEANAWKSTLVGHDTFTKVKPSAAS

B1: rcSso7d.SA monolayer (designed binder)
chain: MGSIHHHHHHSSGLVPRGSHMCATVKFTYQGEEKQVDISKIKIVARDGQYIDFKYDEGGGAYGYGWVSEKDAPKELLQMLEKQ
modifications: EDC/NHS-activated protein coupled to an amine-functionalized silicon wafer
notes: also called monomeric rcSso7d.SA; surface-immobilized rcSso7d.SA
- [P]T (total concentration of binding sites) [1]: 0.29 nM
- [P]T (total concentration of binding sites) [2]: 0.4 nM
- [P]T (total concentration of binding sites) [3]: 0.36 nM
- [P]T (total concentration of binding sites) [4]: 0.28 nM
- limit of detection (LOD) [5]: 360 nM
- EC50 (read off the curve) [6]: ~3000 nM
- Kd [7]: 8000 nM
- EC50 (read off the curve) [8]: ~2000 nM

Reference: patent US20200057058A1 (MIT, published 2020)
